Holding throughout (assay): SEC
For one data set, the target named is T1, mS100A9(H103A) (murine, UniProt P31725 2-113, H103A).
T1 sequence (looked up): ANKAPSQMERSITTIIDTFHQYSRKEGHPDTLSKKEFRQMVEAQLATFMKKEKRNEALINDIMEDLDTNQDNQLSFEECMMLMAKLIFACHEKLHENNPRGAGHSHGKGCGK

A further data set has as its target T2, mS100A9(H103A)(H107A) (murine, UniProt P31725 2-113, H103A | H107A).
T2 sequence (looked up): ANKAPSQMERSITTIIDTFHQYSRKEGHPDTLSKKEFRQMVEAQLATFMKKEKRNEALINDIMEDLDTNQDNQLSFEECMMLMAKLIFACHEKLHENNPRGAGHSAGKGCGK

Data set [1] deals with T3, mS100A9 (murine S100A9 subunit of calprotectin) (murine, UniProt P31725 1-113).
T3 sequence (looked up): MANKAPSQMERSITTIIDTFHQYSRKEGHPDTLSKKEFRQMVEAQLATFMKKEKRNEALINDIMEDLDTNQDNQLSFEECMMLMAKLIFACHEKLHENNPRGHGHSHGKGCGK

The target of another data set is T4, mS100A9(H103A)(H105A) (murine, UniProt P31725 2-113, H103A | H105A).
T4 sequence (looked up): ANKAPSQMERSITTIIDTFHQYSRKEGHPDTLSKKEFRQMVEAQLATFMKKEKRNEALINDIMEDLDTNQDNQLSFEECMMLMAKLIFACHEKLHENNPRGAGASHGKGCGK

For another data set, the target named is T5, mS100A9(H105A)(H107A) (murine, UniProt P31725 2-113, H105A | H107A).
T5 sequence (looked up): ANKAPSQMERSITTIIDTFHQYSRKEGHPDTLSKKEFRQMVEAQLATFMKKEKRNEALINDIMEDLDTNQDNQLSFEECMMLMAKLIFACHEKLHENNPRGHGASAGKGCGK

Another data set addresses T6, mS100A9(H105A) (murine, UniProt P31725 2-113, H105A).
T6 sequence (looked up): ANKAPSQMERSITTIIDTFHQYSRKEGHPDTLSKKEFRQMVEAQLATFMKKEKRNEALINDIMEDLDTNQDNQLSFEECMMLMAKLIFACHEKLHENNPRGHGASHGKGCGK

The target in a further data set is T7, mS100A9(H107A) (murine, UniProt P31725 2-113, H107A).
T7 sequence (looked up): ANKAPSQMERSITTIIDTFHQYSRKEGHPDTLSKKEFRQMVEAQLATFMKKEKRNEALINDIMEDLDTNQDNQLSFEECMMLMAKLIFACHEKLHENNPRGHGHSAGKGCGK

Data set [2] deals with the molecule itself.
Data set [3] concerns the molecule itself. This is another data set of the same source.

Where two headings read alike, the source gives them in different places.

B1: mS100A8 (murine S100A8 subunit of calprotectin) (natural protein, UniProt P27005 1-89, looked up)
chain: MPSELEKALSNLIDVYHNYSNIQGNHHALYKNDFKKMVTTECPQFVQNINIENLFRELDINSDNAINFEEFLAMVIKVGVASHKDSHKE
As to B1, the binding result (in the data set with mS100A9(H103A); in the data set with mS100A9(H103A)(H107A); in data set [1]; in the data set with mS100A9(H103A)(H105A); in the data set with mS100A9(H105A)(H107A); with mS100A9(H105A)) was “binds” in each case. For the same molecule, in the data set with mS100A9(H107A), the binding result is “binds”.

B2: mCP(H105A), mS100A8/mS100A9(H105A) (complex, murine)
chain 1: MPSELEKALSNLIDVYHNYSNIQGNHHALYKNDFKKMVTTECPQFVQNINIENLFRELDINSDNAINFEEFLAMVIKVGVASHKDSHKE
chain 2: ANKAPSQMERSITTIIDTFHQYSRKEGHPDTLSKKEFRQMVEAQLATFMKKEKRNEALINDIMEDLDTNQDNQLSFEECMMLMAKLIFACHEKLHENNPRGHGASHGKGCGK
For B2, the binding result in “SEC [2]” was “binds”.

B3: murine calprotectin (mS100A8/mS100A9 heterodimer) (complex)
chain 1: MPSELEKALSNLIDVYHNYSNIQGNHHALYKNDFKKMVTTECPQFVQNINIENLFRELDINSDNAINFEEFLAMVIKVGVASHKDSHKE
chain 2: MANKAPSQMERSITTIIDTFHQYSRKEGHPDTLSKKEFRQMVEAQLATFMKKEKRNEALINDIMEDLDTNQDNQLSFEECMMLMAKLIFACHEKLHENNPRGHGHSHGKGCGK
In the case of B3, the binding result in the data set “SEC [3]” is on record as “binds”.

B4: mCP(H105A)(H107A), mS100A8/mS100A9(H105A)(H107A) (complex, murine)
chain 1: MPSELEKALSNLIDVYHNYSNIQGNHHALYKNDFKKMVTTECPQFVQNINIENLFRELDINSDNAINFEEFLAMVIKVGVASHKDSHKE
chain 2: ANKAPSQMERSITTIIDTFHQYSRKEGHPDTLSKKEFRQMVEAQLATFMKKEKRNEALINDIMEDLDTNQDNQLSFEECMMLMAKLIFACHEKLHENNPRGHGASAGKGCGK
As to B4, the binding result in “SEC [2]” is “binds”.

B5: mCP(H103A)(H107A), mS100A8/mS100A9(H103A)(H107A) (complex, murine)
chain 1: MPSELEKALSNLIDVYHNYSNIQGNHHALYKNDFKKMVTTECPQFVQNINIENLFRELDINSDNAINFEEFLAMVIKVGVASHKDSHKE
chain 2: ANKAPSQMERSITTIIDTFHQYSRKEGHPDTLSKKEFRQMVEAQLATFMKKEKRNEALINDIMEDLDTNQDNQLSFEECMMLMAKLIFACHEKLHENNPRGAGHSAGKGCGK
With B5, the binding result in “SEC [2]” is listed as “binds”.

B6: mCP ∆His3Asp variant, mS100A8(H83A)(H87A)/mS100A9(H21A)(D31A) (complex, murine)
chain 1: MPSELEKALSNLIDVYHNYSNIQGNHHALYKNDFKKMVTTECPQFVQNINIENLFRELDINSDNAINFEEFLAMVIKVGVASAKDSAKE
chain 2: ANKAPSQMERSITTIIDTFAQYSRKEGHPATLSKKEFRQMVEAQLATFMKKEKRNEALINDIMEDLDTNQDNQLSFEECMMLMAKLIFACHEKLHENNPRGHGHSHGKGCGK
Consider B6, for which the binding result in the data set “SEC [2]” is recorded as “binds”.

B7: mCP(H107A), mS100A8/mS100A9(H107A) (complex, murine)
chain 1: MPSELEKALSNLIDVYHNYSNIQGNHHALYKNDFKKMVTTECPQFVQNINIENLFRELDINSDNAINFEEFLAMVIKVGVASHKDSHKE
chain 2: ANKAPSQMERSITTIIDTFHQYSRKEGHPDTLSKKEFRQMVEAQLATFMKKEKRNEALINDIMEDLDTNQDNQLSFEECMMLMAKLIFACHEKLHENNPRGHGHSAGKGCGK
As for B7, the binding result in the data set “SEC [2]” is recorded as “binds”.

B8: mCP(H103A)(H105A), mS100A8/mS100A9(H103A)(H105A) (complex, murine)
chain 1: MPSELEKALSNLIDVYHNYSNIQGNHHALYKNDFKKMVTTECPQFVQNINIENLFRELDINSDNAINFEEFLAMVIKVGVASHKDSHKE
chain 2: ANKAPSQMERSITTIIDTFHQYSRKEGHPDTLSKKEFRQMVEAQLATFMKKEKRNEALINDIMEDLDTNQDNQLSFEECMMLMAKLIFACHEKLHENNPRGAGASHGKGCGK
With B8, the binding result in the data set “SEC [2]” is “binds”.

B9: mCP(H103A), mS100A8/mS100A9(H103A) (complex, murine)
chain 1: MPSELEKALSNLIDVYHNYSNIQGNHHALYKNDFKKMVTTECPQFVQNINIENLFRELDINSDNAINFEEFLAMVIKVGVASHKDSHKE
chain 2: ANKAPSQMERSITTIIDTFHQYSRKEGHPDTLSKKEFRQMVEAQLATFMKKEKRNEALINDIMEDLDTNQDNQLSFEECMMLMAKLIFACHEKLHENNPRGAGHSHGKGCGK
For the molecule B9, the binding result in the data set “SEC [2]” was “binds”.

(Values after article PMC6803030 (Inorganic chemistry, 2019).)
